Reference: US20190352409A1 (AUTOLUS, published 2019)

T1: Transmembrane activator and calcium modulator and cyclophilin ligand (CAML) interactor (TACI), on cells (human, UniProt O14836 1-293)
T1 construct: whole, on cells; also called TNFRSF13B; SupT1 TACI cells
T1 sequence (looked up): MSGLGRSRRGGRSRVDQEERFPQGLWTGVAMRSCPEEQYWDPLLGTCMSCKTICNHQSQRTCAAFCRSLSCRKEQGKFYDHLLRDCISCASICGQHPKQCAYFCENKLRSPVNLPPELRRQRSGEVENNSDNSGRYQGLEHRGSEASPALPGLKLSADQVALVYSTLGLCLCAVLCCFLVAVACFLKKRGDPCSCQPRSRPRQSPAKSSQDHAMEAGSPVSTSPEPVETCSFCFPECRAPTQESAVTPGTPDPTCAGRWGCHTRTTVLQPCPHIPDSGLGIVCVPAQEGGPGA

T2: Transmembrane activator and calcium modulator and cyclophilin ligand (CAML) interactor (TACI), on cells (human, UniProt O14836 1-293)
T2 chain: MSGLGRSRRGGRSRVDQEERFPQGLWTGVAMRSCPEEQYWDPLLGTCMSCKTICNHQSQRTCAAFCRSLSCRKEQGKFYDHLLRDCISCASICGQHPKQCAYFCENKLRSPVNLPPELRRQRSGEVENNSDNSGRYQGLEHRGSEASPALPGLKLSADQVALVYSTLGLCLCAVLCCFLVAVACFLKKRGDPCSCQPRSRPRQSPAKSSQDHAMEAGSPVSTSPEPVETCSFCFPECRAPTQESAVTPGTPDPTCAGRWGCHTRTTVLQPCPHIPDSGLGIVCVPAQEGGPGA


Key:
[1] = biological target: T1, Transmembrane activator and calcium …; assay: flow cytometry on TACI positive SupT1 cells (FIG. 6b)
Description: b) Confirmatory analysis of TACI binding by flow cytometry. Hybridoma lines were screened on TACI positive and BCMA positive SupT1 cells. The four hybridomas with the highest reactivity to SupT1 TACI cells were chosen for subcloning and characterisation
Five mice with TACI positive sera were selected for a final immunization boost before the spleens were harvested for B cell isolation and hybridoma production. Hybridoma fusions of 10×96-well plates with lymphocytes from the selected mice were performed. Hybridoma supernatants were screened for reactive anti-TACI antibodies by ELISA screening against recombinant human TACI purified protein (Peprotech, 310-17), representative data is shown in FIG. 6a. ELISA positive hybridoma supernatants were tested by flow cytometry, on SupT1 cells engineered to overexpress TACI. As a control BCMA expressing SupT1 cells were used, FIG. 6b. Candidate hybridomas were expanded.

[2] = biological target: T2, Transmembrane activator and calcium …; assay: Biacore SPR

| binding result [1] | Kd [2] [nM] | Binder |
| --- | --- | --- |
| binds | 0.379 | 4B11 anti-TACI monoclonal antibody (mouse hybridoma) (antibody, V domains shown, Tested as hybridoma supernatant from BalBC mice) VH: EVQLQQSVAELVRPGASVKLSCTASGFNIKNTYIHWVKQRPEQGLEWIGKIDPANGNSEYAPKFQGKATITADTSSNTAYLQLSSLTSEDTTIYYCTSGYGAYWGQGTTLTVSS VL: DIVLSQSPSSLAVSIGEKVTLSCKSSQSLLYSSNQKNYLAWFQQKPGQSLKLLIYWASTREFGVPDRFTGSGSGTDFTLTISSVKTEDLAVYYCQQYYTWTFGGGTKLEIK |
| binds | 0.924 | 2G2 anti-TACI monoclonal antibody (mouse hybridoma) (antibody, V domains shown, Tested as hybridoma supernatant from BalBC mice) VH: QVTLKESGPGMLQPSQTLSLTCSFSGFSLSTFGMGVGWIRQPSGKGLEWLAHIWWDDAQYSNPALRSRLTISKDTSKNQVFLKIANVDTADTATYYCSRIHSYYSYDEGFAYWGQGTLVTVSS VL: DIVMTQSQKFMSTTVGDRVSITCKASQNVGTAVAWYQQKPGQSPKLLIYSASNRYTGVPDRFTGSGSGTDFTLTISNMQSEDLADYFCQQYSSYRTFGGGTKLEIKR |
| binds | 0.21 | 1G6 anti-TACI monoclonal antibody (mouse hybridoma) (antibody, V domains shown, Tested as hybridoma supernatant from BalBC mice) VH: QVQLKQSGPGLVAPSQSLSITCTVSGFSLTSYGVDWVRQSPGKGLEWLGIIWGGGRTNYNSAFKSRLSISKDNSKSQVFLKMNSLQTDDTAMYYCASGDRAADYWGQGTSVTVSS VL: DIVMTQSQKFMSTTVGDRVTITCKASQNVGTAVAWYQQKPGQSPKLLIYSASNRYTGVPVRFTGSGSGTDFTLTINNMQSEDLADYFCQQYSSYPLTFGAGTKLELK |
|  | 0.051 | 2H6 anti-TACI monoclonal antibody (mouse hybridoma) (antibody, V domains shown) VH: EVQLQQSGPELVKPGASVRMSCKASGYTFTNYVMHWVKQKPGQGLEWIGYINPSNDDTKYTEKFKGKATLTSDKSSSTAYMELSSLTSEDSAVYYCARGTHGDYYALDYWGQGTSVTVSS VL: DIVLTQSPASLAVSLGQSVTISCRASESVEYYGTSLMQWYQQKPGQAPKLLIYGASNVESGVPARFSGSGSGTDFSLNIHPVEEDDIAMYFCQQSRKVPWTFGGGTKLEI |
